# B1: B6-mCD3 (bispecific antibody)
# chain: EVQLVESDGGLVQPGRSLKLSCAASGFTFSDYYMAWVRQAPTKGLEWVATITYDVYSTYYRDSVKGRFTISRDNAKSTLYLQMDSLRSEDTATYYCARHGGDGYNSGNWFAYWGQGTLVTVSSGGGGSGGGGSGGGGSDIVLTQSPALAVSLGQRATISCRASQSVSISRYNIMHWYQQKPGQQPKLLIYRASNLASGIPARFSGSGSGTDFTLTINPVQADDIATYYCQQSRESPPTFGGGTKLELKRAANASEVQLVESGGGLVQPGKSLKLSCEASGFTFSGYGMHWVRQAPGRGLESVAYITSSSINIKYADAVKGRFTVSRDNAKNLLFLQMNILKSEDTAMYYCARFDWDKNYWGQGTMVTVSSGGGGSGGGGSGGGGSDIQMTQSPSSLPASLGDRVTINCQASQDISNYLNWYQQKPGKAPKLLIYYTNKLADGVPSRFSGSGSGRDSSFTISSLESEDIGSYYCQQYYNYPWTFGPGTKLEIKHHHHHH
# B2: B6-CD3-3 (bispecific antibody)
# chain: EVQLVESDGGLVQPGRSLKLSCAASGFTFSDYYMAWVRQAPTKGLEWVATITYDVYSTYYRDSVKGRFTISRDNAKSTLYLQMDSLRSEDTATYYCARHGGDGYNSGNWFAYWGQGTLVTVSSGGGGSGGGGSGGGGSDIVLTQSPALAVSLGQRATISCRASQSVSISRYNIMHWYQQKPGQQPKLLIYRASNLASGIPARFSGSGSGTDFTLTINPVQADDIATYYCQQSRESPPTFGGGTKLELKRAANASEVQLVESGGGLVQPGGSLRLSCAASGFTFSTYAMNWVRQAPGKGLEWVGRIRSKYNNYATYYADSVKGRFTISRDDSKNTLYLQMNSLRAEDTAVYYCVRHGNFGDSYVSWFAYWGQGTLVTVSSGKPGSGKPGSGKPGSGKPGSQAVVTQEPSLTVSPGGTVTLTCGSSTGAVTTSNYANWVQQKPGKSPRGLIGGTNKRAPGVPARFSGSLLGGKAALTISGAQPEDEADYYCALWYSNHWVFGGGTKLTVLHHHHHH
# How the values were obtained:
# human CCR8 [1] = target: T1, human CCR8 (human, UniProt P51685 1-355); experiment: cell-based or functional assay
# T1 sequence (P51685 whole entry): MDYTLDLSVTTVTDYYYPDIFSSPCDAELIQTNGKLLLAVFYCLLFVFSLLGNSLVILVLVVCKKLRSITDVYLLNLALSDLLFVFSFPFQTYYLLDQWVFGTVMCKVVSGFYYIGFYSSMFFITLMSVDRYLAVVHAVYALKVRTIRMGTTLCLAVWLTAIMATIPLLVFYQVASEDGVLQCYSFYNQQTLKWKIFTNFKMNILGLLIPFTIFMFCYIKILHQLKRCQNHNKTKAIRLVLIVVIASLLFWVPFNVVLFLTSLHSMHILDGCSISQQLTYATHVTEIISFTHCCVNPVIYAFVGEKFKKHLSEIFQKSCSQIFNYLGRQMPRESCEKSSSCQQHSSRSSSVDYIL
# human CCR8 [2] = target: T1, human CCR8; experiment: cell-based or functional assay; remark: listed apart in the source
Binder,"EC50 of cytotoxic activity, luciferase; hCCR8/Fluc/Rat-1 target cells, mouse spleen-derived CD8-positive T cell effectors, antibody 10 pM-10 nM (human CCR8 [1]) [pM]","EC50 of killing rate; hCCR8/FLuc/Rat-1 target cells, activated PBMC effectors, E/T 3:1 (human CCR8 [2]) [pM]"
B1,62.3,
B2,,1.62

# Reference: patent publication EP4722248A1 (Shionogi & Co., Ltd, dated 2026)
